Experimental data from patent publication US20140044730A1 (Regeneron, published 2014).
Residue numbers refer to the chain shown, from its start.

B1: VH-A97 (antibody, V domains shown)
VH: EMQLVESGGGLVQPGGSLRLSCAASGFTFSSHWMKWVRQAPGKGLEWVANINQDGSEKYYVDSVKGRFTISRDNAKNSLFLQMNSLRAEDTAVYYCHRDIVLMVYDMDYYYYGMDVWGQGTTVTVSS
VL: not shown
notes: His variant of 300N; label printed without the final H
B2: VH-I51H (antibody, V domains shown)
VH: B1 VH with I51H, H97A
VL: not shown
notes: His variant of 300N
B3: VH-F27H (antibody, V domains shown)
VH: B1 VH with F27H, H97A
VL: not shown
notes: His variant of 300N
B4: VH-Y110H (antibody, V domains shown)
VH: B1 VH with H97A, Y110H
VL: not shown
notes: His variant of 300N
B5: VH-G55H (antibody, V domains shown)
VH: B1 VH with G55H, H97A
VL: not shown
notes: His variant of 300N
B6: VH-G113H (antibody, V domains shown)
VH: B1 VH with H97A, G113H
VL: not shown
notes: His variant of 300N
B7: VH-L102H (antibody, V domains shown)
VH: B1 VH with H97A, L102H
VL: not shown
notes: His variant of 300N
B8: VK-S32H (antibody, V domains shown)
VH: B1 VH with H97A
VL: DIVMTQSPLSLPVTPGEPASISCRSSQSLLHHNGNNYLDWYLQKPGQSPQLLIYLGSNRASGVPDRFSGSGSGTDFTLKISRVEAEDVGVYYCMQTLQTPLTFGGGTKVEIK
notes: His variant of 300N
B9: VH-N52H (antibody, V domains shown)
VH: B1 VH with N52H, H97A
VL: not shown
notes: His variant of 300N
B10: VH-I100H (antibody, V domains shown)
VH: B1 VH with H97A, I100H
VL: not shown
notes: His variant of 300N
B11: VH-Y109H (antibody, V domains shown)
VH: B1 VH with H97A, Y109H
VL: not shown
notes: His variant of 300N
B12: VH-W33H (antibody, V domains shown)
VH: B1 VH with W33H, H97A
VL: not shown
notes: His variant of 300N
B13: VH-Q53H (antibody, V domains shown)
VH: B1 VH with Q53H, H97A
VL: not shown
notes: His variant of 300N
B14: VH-R98H (antibody, V domains shown)
VH: B1 VH with H97A, R98H
VL: not shown
notes: His variant of 300N
B15: VH-T28H (antibody, V domains shown)
VH: B1 VH with T28H, H97A
VL: not shown
notes: His variant of 300N
B16: VH-Y105H (antibody, V domains shown)
VH: B1 VH with H97A, Y105H
VL: not shown
notes: His variant of 300N
B17: VH-Y111H (antibody, V domains shown)
VH: B1 VH with H97A, Y111H
VL: not shown
notes: His variant of 300N
B18: VH-S30H (antibody, V domains shown)
VH: B1 VH with S30H, H97A
VL: not shown
notes: His variant of 300N
B19: VH-G26H (antibody, V domains shown)
VH: B1 VH with G26H, H97A
VL: not shown
notes: His variant of 300N
B20: VH-S31H (antibody, V domains shown)
VH: B1 VH with S31H, H97A
VL: not shown
notes: His variant of 300N
B21: VK-T96H (antibody, V domains shown)
VH: B1 VH with H97A
VL: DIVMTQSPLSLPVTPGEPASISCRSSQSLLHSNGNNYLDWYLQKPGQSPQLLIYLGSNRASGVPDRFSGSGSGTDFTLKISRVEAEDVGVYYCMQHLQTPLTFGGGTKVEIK
notes: His variant of 300N
B22: VH-M103H (antibody, V domains shown)
VH: B1 VH with H97A, M103H
VL: not shown
notes: His variant of 300N
B23: VH-K58H (antibody, V domains shown)
VH: B1 VH with K58H, H97A
VL: not shown
notes: His variant of 300N
B24: VK-L29H (antibody, V domains shown)
VH: B1 VH with H97A
VL: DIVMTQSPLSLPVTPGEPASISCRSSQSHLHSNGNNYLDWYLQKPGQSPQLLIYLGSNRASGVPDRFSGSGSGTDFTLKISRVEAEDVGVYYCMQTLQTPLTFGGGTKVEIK
notes: His variant of 300N
B25: VH-D115H (antibody, V domains shown)
VH: B1 VH with H97A, D115H
VL: not shown
notes: His variant of 300N
B26: VH-E57H (antibody, V domains shown)
VH: B1 VH with E57H, H97A
VL: not shown
notes: His variant of 300N
B27: VK-G56H (antibody, V domains shown)
VH: B1 VH with H97A
VL: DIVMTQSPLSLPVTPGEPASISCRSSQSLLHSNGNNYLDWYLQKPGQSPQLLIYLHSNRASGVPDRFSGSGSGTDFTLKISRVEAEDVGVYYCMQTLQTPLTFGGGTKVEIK
notes: His variant of 300N
B28: VK-G34H (antibody, V domains shown)
VH: B1 VH with H97A
VL: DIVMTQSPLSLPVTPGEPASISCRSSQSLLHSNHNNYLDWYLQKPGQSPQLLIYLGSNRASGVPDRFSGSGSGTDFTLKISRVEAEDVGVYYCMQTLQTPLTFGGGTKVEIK
notes: His variant of 300N
B29: VH-F29H (antibody, V domains shown)
VH: B1 VH with F29H, H97A
VL: not shown
notes: His variant of 300N
B30: VH-S56H (antibody, V domains shown)
VH: B1 VH with S56H, H97A
VL: not shown
notes: His variant of 300N
B31: VH-V116H (antibody, V domains shown)
VH: B1 VH with H97A, V116H
VL: not shown
notes: His variant of 300N
B32: VK-L55H (antibody, V domains shown)
VH: B1 VH with H97A
VL: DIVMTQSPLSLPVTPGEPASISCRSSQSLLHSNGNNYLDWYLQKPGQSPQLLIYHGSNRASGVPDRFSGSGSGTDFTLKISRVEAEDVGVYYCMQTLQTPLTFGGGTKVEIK
notes: His variant of 300N
B33: VH-D54H (antibody, V domains shown)
VH: B1 VH with D54H, H97A
VL: not shown
notes: His variant of 300N
B34: VH-D99H (antibody, V domains shown)
VH: B1 VH with H97A, D99H
VL: not shown
notes: His variant of 300N

What was measured:
[1] = target: T1, human PCSK9 with a C-terminal myc-myc-hexahistidine tag (human, UniProt Q8NBP7 31-692, limits assumed); assay: SPR 25C pH 7.2, mAb captured;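 note: biacore SPR, antibodies captured on anti-human Fc CM4 chip with PCSK9 flowed as analyte, rate constants from a one-to-one kinetic fit, KD and half-life derived from them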
T1 construct: also called hPCSK9-mmH; hPCSK9-mmh; not shown: C-terminal myc-myc-hexahistidine tag

[2] = target: T1, human PCSK9 with a C-terminal …; assay: SPR 25C pH 5.75, mAb captured;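 note: biacore surface with anti-human Fc antibody capturing the antibodies, PCSK9 as analyte, one-to-one kinetic fit, KD as kd over ka, half-life derived from kd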
Protocol: (§1) A Biacore CM4 sensor chip was derivatized with a monoclonal mouse anti-human Fc antibody to capture human antibodies. The histidine substitution variant anti-PCSK9 antibodies were captured onto the anti-human Fc sensor surface from culture medium after transient expression in Chinese hamster ovary (CHO) cells. […] Kinetic association (kₐ) and dissociation (kd) rate constants were determined by processing and fitting the data to a 1:1 binding model using Scrubber 2.0 curve fitting software. Binding dissociation equilibrium constants (KD) and dissociative half-lives (t_{1/2}) were calculated from the kinetic rate constants as: KD (M)=kd/kₐ; and t_{1/2} (min)=(In2/(60*kd).

[3] = target: T1, human PCSK9 with a C-terminal …; assay: SPR 25C, mAb captured;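 note: biacore CM4 surface bearing anti-human Fc antibody capturing the mAbs, PCSK9 binding and release rates fitted with a one-to-one model, KD and half-life derived from those rates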
Protocol: as §1

Binder	binding result [1]	Kd [2] [nM]	t½ [2] [min]	Kd [1] [nM]	t½ [1] [min]	KD ratio pH 5.75/pH 7.2 [3]	t½ ratio pH 5.75/pH 7.2 [3]
B1	no binding						
B2		1.03	17	0.828	50	1.24	0.34
B3		1.05	12	1.21	42	0.87	0.29
B4		3.37	7	194	1	0.02	9.97
B5		1.04	15	0.921	53	1.13	0.28
B6	no binding						
B7		17.9	7	4.89	23	3.66	0.31
B8	no binding						
B9		4.33	3	2.35	21	1.84	0.16
B10		24.1	3	6.77	18	3.56	0.15
B11		247	1	242	0	1.02	1.37
B12		21.5	0.1	15.4	4	1.39	0.03
B13		1.57	6	1.22	32	1.29	0.19
B14		7.52	6	4.29	23	1.75	0.28
B15		1.45	16	2.96	20	0.49	0.8
B16		643	0	292	1	2.2	0.83
B17		7.01	6	19.4	3	0.36	2.29

Binder	binding result [1]	Kd [2] [nM]	t½ [2] [min]	Kd [1] [nM]	t½ [1] [min]	KD ratio pH 5.75/pH 7.2 [3]	t½ ratio pH 5.75/pH 7.2 [3]
B18		1.09	13	1.06	41	1.03	0.33
B19		0.956	12	0.985	47	0.97	0.26
B20		1	16	1.01	48	1	0.34
B21	no binding						
B22		5.56	6	3.3	27	1.68	0.21
B23		1.28	8	1.39	32	0.92	0.26
B24		40.2	1	12.9	7	3.12	0.16
B25		18.1	13	3.91	26	4.62	0.49
B26		1.23	8	1.2	30	1.03	0.26
B27		1.83	9	1.11	36	1.65	0.24
B28		2370	0.3	18	1	131	0.38
B29		1.91	10	1.06	46	1.8	0.22
B30		1.13	9	1.02	40	1.11	0.23
B31		6.11	11	2.62	43	2.33	0.26
B32		2.68	19	0.906	66	2.95	0.29
B33		0.76	13	0.964	40	0.79	0.33
B34		6.32	7	46.2	9	0.14	0.73
